Assay results as given in patent US11833164B2, “Methods of treating Fabry disease in patients having a mutation in the GLA gene” (Amicus Therapeutics, Inc., priority 2019, dated 2023).

System: mutant form of α-Gal A expressed in HEK-293 cells
Experiment: HEK assay (GLP HEK / Migalastat Amenability Assay): α-Gal A activity in lysates of transiently transfected HEK-293 cells incubated with or without 10 μM migalastat
Assay type: cell-based, human
Conditions: for Absolute increase (% WT): 10 μM migalastat versus baseline; for Relative increase: 10 μM migalastat α-Gal A activity relative to baseline; for 10 μM migalastat α-Gal A activity (% WT): 5 days; for 10 μM migalastat α-Gal A activity (% WT) / Baseline α-Gal A activity (% WT): percentage of baseline wild-type α-Gal A activity; for 10 μM migalastat α-Gal A activity (% WT) / Baseline α-Gal A activity (% WT) / Baseline α-Gal A activity / 10 μM migalastat α-Gal A activity: mean ± SEM; for Baseline α-Gal A activity (% WT): absence of migalastat; for Baseline α-Gal A activity / 10 μM migalastat α-Gal A activity: lysates of HEK-293 cells transfected with the mutant form; for Baseline α-Gal A activity: incubated 5 days in the absence of migalastat; for 10 μM migalastat α-Gal A activity: incubated 5 days with 10 μM migalastat
Summary of the method: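 Activity reported as 4-MU released (nmol/mg/hr), mean±SEM, from lysates of transiently transfected HEK-293 cells expressing mutant α-Gal A, cultured with or without 10 μM migalastat.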

| Molecule | Absolute increase (% WT) | Relative increase | 10 μM migalastat α-Gal A activity (% WT) | Baseline α-Gal A activity (% WT) | Baseline α-Gal A activity | 10 μM migalastat α-Gal A activity |
| --- | --- | --- | --- | --- | --- | --- |
| D136A (protein) MQLRNPELHLGCALALRFLALVSWDIPGARALDNGLARTPTMGWLHWERFMCNLDCQEEPDSCISEKLFMEMAELMVSEGWKDAGYEYLCIDDCWMAPQRDSEGRLQADPQRFPHGIRQLANYVHSKGLKLGIYAAVGNKTCAGFPGSFGYYDIDAQTFADWGVDLLKFDGCYCDSLENLADGYKHMSLALNRTGRSIVYSCEWPLYMWPFQKPNYTEIRQYCNHWRNFADIDDSWKSIKSILDWTSFNQERIVDVAGPGGWNDPDMLVIGNFGLSWNQQVTQMALWAIMAAPLFMSNDLRHISPQAKALLQDKDVIAINQDPLGKQGYQLRQGDNFEVWERPLSGLAWAVAMINRQEIGGPRSYTIAVASLGKGVACNPACFITQLLPVKRKLGFYEWTSRLRSHINPTGTVLLQLENTMQMSLKDLL | 9.4 % WT | 1.5 | 29.8 ± 1 % WT | 20.4 ± 1.1 % WT | 8054 ± 482 nmol/mg/h | 12166 ± 927 nmol/mg/h |
| D136N (protein) MQLRNPELHLGCALALRFLALVSWDIPGARALDNGLARTPTMGWLHWERFMCNLDCQEEPDSCISEKLFMEMAELMVSEGWKDAGYEYLCIDDCWMAPQRDSEGRLQADPQRFPHGIRQLANYVHSKGLKLGIYANVGNKTCAGFPGSFGYYDIDAQTFADWGVDLLKFDGCYCDSLENLADGYKHMSLALNRTGRSIVYSCEWPLYMWPFQKPNYTEIRQYCNHWRNFADIDDSWKSIKSILDWTSFNQERIVDVAGPGGWNDPDMLVIGNFGLSWNQQVTQMALWAIMAAPLFMSNDLRHISPQAKALLQDKDVIAINQDPLGKQGYQLRQGDNFEVWERPLSGLAWAVAMINRQEIGGPRSYTIAVASLGKGVACNPACFITQLLPVKRKLGFYEWTSRLRSHINPTGTVLLQLENTMQMSLKDLL | 11.2 % WT | 1.9 | 24.2 ± 0.9 % WT | 13 ± 0.8 % WT | 5079 ± 248 nmol/mg/h | 9827 ± 630 nmol/mg/h |
| V137D (protein) MQLRNPELHLGCALALRFLALVSWDIPGARALDNGLARTPTMGWLHWERFMCNLDCQEEPDSCISEKLFMEMAELMVSEGWKDAGYEYLCIDDCWMAPQRDSEGRLQADPQRFPHGIRQLANYVHSKGLKLGIYADDGNKTCAGFPGSFGYYDIDAQTFADWGVDLLKFDGCYCDSLENLADGYKHMSLALNRTGRSIVYSCEWPLYMWPFQKPNYTEIRQYCNHWRNFADIDDSWKSIKSILDWTSFNQERIVDVAGPGGWNDPDMLVIGNFGLSWNQQVTQMALWAIMAAPLFMSNDLRHISPQAKALLQDKDVIAINQDPLGKQGYQLRQGDNFEVWERPLSGLAWAVAMINRQEIGGPRSYTIAVASLGKGVACNPACFITQLLPVKRKLGFYEWTSRLRSHINPTGTVLLQLENTMQMSLKDLL | 11.6 % WT | 9.2 | 13 ± 1.6 % WT | 1.4 ± 0.2 % WT | 516 ± 80 nmol/mg/h | 4757 ± 618 nmol/mg/h |
| V137A (protein) MQLRNPELHLGCALALRFLALVSWDIPGARALDNGLARTPTMGWLHWERFMCNLDCQEEPDSCISEKLFMEMAELMVSEGWKDAGYEYLCIDDCWMAPQRDSEGRLQADPQRFPHGIRQLANYVHSKGLKLGIYADAGNKTCAGFPGSFGYYDIDAQTFADWGVDLLKFDGCYCDSLENLADGYKHMSLALNRTGRSIVYSCEWPLYMWPFQKPNYTEIRQYCNHWRNFADIDDSWKSIKSILDWTSFNQERIVDVAGPGGWNDPDMLVIGNFGLSWNQQVTQMALWAIMAAPLFMSNDLRHISPQAKALLQDKDVIAINQDPLGKQGYQLRQGDNFEVWERPLSGLAWAVAMINRQEIGGPRSYTIAVASLGKGVACNPACFITQLLPVKRKLGFYEWTSRLRSHINPTGTVLLQLENTMQMSLKDLL | 45.4 % WT | 1.8 | 106.6 ± 5.9 % WT | 61.1 ± 4.6 % WT | 22393 ± 1429 nmol/mg/h | 40016 ± 2785 nmol/mg/h |
| D136V (protein) MQLRNPELHLGCALALRFLALVSWDIPGARALDNGLARTPTMGWLHWERFMCNLDCQEEPDSCISEKLFMEMAELMVSEGWKDAGYEYLCIDDCWMAPQRDSEGRLQADPQRFPHGIRQLANYVHSKGLKLGIYAVVGNKTCAGFPGSFGYYDIDAQTFADWGVDLLKFDGCYCDSLENLADGYKHMSLALNRTGRSIVYSCEWPLYMWPFQKPNYTEIRQYCNHWRNFADIDDSWKSIKSILDWTSFNQERIVDVAGPGGWNDPDMLVIGNFGLSWNQQVTQMALWAIMAAPLFMSNDLRHISPQAKALLQDKDVIAINQDPLGKQGYQLRQGDNFEVWERPLSGLAWAVAMINRQEIGGPRSYTIAVASLGKGVACNPACFITQLLPVKRKLGFYEWTSRLRSHINPTGTVLLQLENTMQMSLKDLL | 74.2 % WT | 2.8 | 116.4 ± 5.5 % WT | 42.2 ± 1.7 % WT | 17164 ± 1203 nmol/mg/h | 47647 ± 3779 nmol/mg/h |
| V137G (protein) MQLRNPELHLGCALALRFLALVSWDIPGARALDNGLARTPTMGWLHWERFMCNLDCQEEPDSCISEKLFMEMAELMVSEGWKDAGYEYLCIDDCWMAPQRDSEGRLQADPQRFPHGIRQLANYVHSKGLKLGIYADGGNKTCAGFPGSFGYYDIDAQTFADWGVDLLKFDGCYCDSLENLADGYKHMSLALNRTGRSIVYSCEWPLYMWPFQKPNYTEIRQYCNHWRNFADIDDSWKSIKSILDWTSFNQERIVDVAGPGGWNDPDMLVIGNFGLSWNQQVTQMALWAIMAAPLFMSNDLRHISPQAKALLQDKDVIAINQDPLGKQGYQLRQGDNFEVWERPLSGLAWAVAMINRQEIGGPRSYTIAVASLGKGVACNPACFITQLLPVKRKLGFYEWTSRLRSHINPTGTVLLQLENTMQMSLKDLL | 52.4 % WT | 2.2 | 98.2 ± 5 % WT | 45.9 ± 4.2 % WT | 16515 ± 1170 nmol/mg/h | 36258 ± 1701 nmol/mg/h |
